By Kd is commonly meant the equilibrium constant for the complex coming apart. Higher therefore signals weaker binding. What is called EC50 is the concentration that produces a half-maximal response. A word on the koff: it is the first-order rate constant of dissociation. Higher therefore signals a short-lived complex. In general, kon refers to the second-order rate constant of association. Low readings indicate slower complex formation, high ones faster complex formation.

Nine molecules from patent US20230250178A1 (published 2023) can be followed below.

Test [1] deals with T1, cynomolgus CCR8 (cynomolgus, UniProt O97665 1-356 (rhesus entry)).
T1 construct: also called cynoCCR8; G7NYJ2_CCR8_MACFA
Description: FACS screening, full length human IgG1.

In test [2] the target is T2, human CCR8 (human, UniProt P51685 1-355).
T2 construct: also called hCCR8; P51685_CCR8_HUMAN
Briefly: FACS screening, full length human IgG1.

A further test concerns the target T3, human FcRn (human, UniProt P55899 24-297).
T3 construct: also called neonatal Fc receptor
Description: SPR pH 6.0, FcRn immobilised.

The next test has as its target T4, mouse FcRn (mouse, UniProt Q61559 22-297, limits assumed).
T4 sequence (looked up): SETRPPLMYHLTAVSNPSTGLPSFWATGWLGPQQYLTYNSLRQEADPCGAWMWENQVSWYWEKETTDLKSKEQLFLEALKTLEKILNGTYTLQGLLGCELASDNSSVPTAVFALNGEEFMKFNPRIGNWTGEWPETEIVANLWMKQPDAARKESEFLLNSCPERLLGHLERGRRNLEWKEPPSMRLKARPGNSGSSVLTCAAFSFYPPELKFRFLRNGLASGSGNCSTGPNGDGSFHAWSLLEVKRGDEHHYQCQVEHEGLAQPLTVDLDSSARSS
Description: SPR pH 6.0, FcRn immobilised.

The target in the next test is cynomolgus FcRn (cynomolgus, UniProt Q8SPV9 24-297, limits assumed). Briefly: SPR pH 6.0, FcRn immobilised.
Test [3] has as its target T2, human CCR8. Description: FACS, HuT78 (endogenous hCCR8). Background: A flow cytometer gives signals particle by particle.
Test [4] deals with T5, FcRn of the FcRn column (Roche, Order No. 8128057001).
T5 construct: also called immobilized FcRn
Description: FcRn affinity chromatography, pH gradient. As to the method:
A FcRn column (Roche, Order No. 8128057001; prepacked with approximately 1 mL resin; binding capacity: ≥100 μg IgG) was equilibrated with running buffer A: 20 mM MES/HCl pH 5.5 140 mM NaCl. 30 μL of each antibody (1 mg/mL in equilibration buffer) was applied to the column.

In test [5] the target is T1, cynomolgus CCR8. Briefly: FACS, CHO-cynoCCR8.
The target in test [6] is T2, human CCR8. Description: FACS, CHO-hCCR8.
The target of test [7] is T1, cynomolgus CCR8. Description: FACS, CHO-cynoCCR8. This is another data set of the same source.
The target of test [8] is T6, HUMAN_TRD_Ys peptide (# 4) (human, Y(SO3) at printed positions 4, 16, 18 (Y3, Y15, Y17 of CCR8); C-terminal K(Biot)).
T6 construct: sulfated
T6 peptide: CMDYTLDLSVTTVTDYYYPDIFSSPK
Briefly: SPR, peptide on SA chip. As to the method:
(§1) SPR binding assays were performed to systematically evaluate antibody binding to a) non-sulfated vs sulfated antigen, b) TRD vs N term and c) human vs cynomolgus CCR8. SPR binding assays were performed on a Biacore T200 instrument (Cytiva) at 25° C. with assay buffer 1× HBS-EP+(order no. BR100826, Cytiva). Peptides were used as ligands and were captured using their C-terminal biotin label on to a streptavidin coated sensor chip (“Sensor Chip SA”, Order No. BR100398, Cytiva). To this end, a terminal lysine (K) was added at the C-term of each peptide for biotinylation. For the N term of CCR8, the naturally occurring cysteine between TRD and LID domain was replaced by a serine. […] The concentration of analyte in assay buffer was 0.05-10 nM and the measurement was performed in multicycle kinetics mode. The sensor surface was regenerated with glycine pH 2.0 after each cycle. Obtained sensorgrams were double referenced (subtraction of reference flow cell signal and buffer injection) and were fitted to a 1:1 Langmuir binding model to derive kinetic data using the Biacore T200 Evaluation software.
In general terms: In SPR one partner is held on a chip, and binding of the other changes the refractive index at the surface.

Test [9] has as its target T7, Cyno_NTerm_Ys peptide (# 6) (cynomolgus, Y(SO3) at printed positions 4, 16, 18 (Y3, Y15, Y17 of CCR8); C-terminal K(Biot)).
T7 construct: sulfated; natural cysteine between TRD and LID replaced by serine
T7 peptide: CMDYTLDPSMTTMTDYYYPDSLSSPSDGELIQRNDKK
Description: SPR, peptide on SA chip. The protocol:
as §1

Test [10] deals with T8, HUMAN_NTerm_Ys peptide (# 8) (human, Y(SO3) at printed positions 4, 16, 18 (Y3, Y15, Y17 of CCR8); C-terminal K(Biot)).
T8 construct: sulfated; natural cysteine between TRD and LID replaced by serine
T8 peptide: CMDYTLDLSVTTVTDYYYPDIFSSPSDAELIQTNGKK
Description: SPR, peptide on SA chip. The protocol:
as §1

Test [11] concerns the target T9, Cyno_TRD_Ys peptide (# 2) (cynomolgus, Y(SO3) at printed positions 4, 16, 18 (Y3, Y15, Y17 of CCR8); C-terminal K(Biot)).
T9 construct: sulfated
T9 peptide: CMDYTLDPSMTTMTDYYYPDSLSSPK
Briefly: SPR, peptide on SA chip. As to the method:
as §1

Test [12] concerns the target T2, human CCR8. Briefly: FACS, CHO-hCCR8. This is another data set of the same source.
Test [13] deals with T10, murine CCR8 (mouse, UniProt P56484 1-353).
T10 construct: also called mCCR8; P56484_CCR8_MOUSE
T10 sequence: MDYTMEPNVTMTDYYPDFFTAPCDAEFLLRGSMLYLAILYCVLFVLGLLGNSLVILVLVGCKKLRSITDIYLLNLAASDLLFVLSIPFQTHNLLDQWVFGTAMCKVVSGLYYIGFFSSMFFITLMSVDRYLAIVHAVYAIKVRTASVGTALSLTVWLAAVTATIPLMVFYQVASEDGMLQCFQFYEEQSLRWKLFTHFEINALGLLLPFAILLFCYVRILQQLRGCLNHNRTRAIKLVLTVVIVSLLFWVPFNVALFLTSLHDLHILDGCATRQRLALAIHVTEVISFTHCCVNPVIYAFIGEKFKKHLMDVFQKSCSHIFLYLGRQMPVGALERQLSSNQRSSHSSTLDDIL
Briefly: FACS, CHO-mCCR8.

For test [14], the target named is T10, murine CCR8. Description: cell-based or functional assay.
The target of test [15] is T1, cynomolgus CCR8. Description: FACS.
The target in test [16] is T2, human CCR8. Briefly: FACS.

Like-named read-outs stand apart in the source and are kept apart here.

T1 sequence (O97665 other isoform, or with tags, fused parts or gaps): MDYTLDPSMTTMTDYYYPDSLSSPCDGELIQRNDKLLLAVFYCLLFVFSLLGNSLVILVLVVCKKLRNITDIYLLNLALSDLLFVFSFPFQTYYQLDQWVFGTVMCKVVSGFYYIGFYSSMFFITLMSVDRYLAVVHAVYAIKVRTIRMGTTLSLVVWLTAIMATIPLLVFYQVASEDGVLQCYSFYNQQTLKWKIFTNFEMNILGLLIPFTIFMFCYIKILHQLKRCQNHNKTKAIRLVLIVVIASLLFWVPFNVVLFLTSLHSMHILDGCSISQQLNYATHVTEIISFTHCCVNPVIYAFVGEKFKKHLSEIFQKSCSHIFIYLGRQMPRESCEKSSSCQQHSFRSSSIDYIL
T3 sequence (P55899 24-297 limits assumed, form in doubt): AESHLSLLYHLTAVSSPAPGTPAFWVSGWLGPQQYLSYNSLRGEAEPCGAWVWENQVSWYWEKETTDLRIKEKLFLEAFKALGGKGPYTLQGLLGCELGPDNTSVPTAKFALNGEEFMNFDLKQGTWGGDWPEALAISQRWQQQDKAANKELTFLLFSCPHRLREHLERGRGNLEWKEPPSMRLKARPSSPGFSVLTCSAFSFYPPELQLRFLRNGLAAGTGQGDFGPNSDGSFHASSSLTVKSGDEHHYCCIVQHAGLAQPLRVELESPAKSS
T5 sequence (P55899 24-297, chain 1 of 2): as the sequence (P55899 24-297 limits assumed, form in doubt) above
T5 sequence (P61769 21-119, chain 2 of 2, further chain): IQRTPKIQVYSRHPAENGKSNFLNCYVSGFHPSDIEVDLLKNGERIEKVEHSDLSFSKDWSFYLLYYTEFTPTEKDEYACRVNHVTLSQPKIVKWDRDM
Chain of cynomolgus FcRn (Q8SPV9 24-297 limits assumed, form in doubt): as the sequence (P55899 24-297 limits assumed, form in doubt) above, with N39D, E44Q, G99S, S189G, S190N, L217M, S269T counted along it

B1: TPP-17576 (antibody, human IgG1, lambda, V domains shown)
VH: EVQLLESGGGLVQPGGSLRLSCAASGFTFSSYAMSWVRQAPGKGLEWVGRIRSKANSYATAYAASVKGRFTISRDNSKNTLYLQMNSLRAEDTAVYYCTRPLDSWGQGTLVTVSS
VL: QSVLTQPPSASGTPGQRVTISCSGSSSNIGNNAVNWYQQLPGTAPKLLIYRNNQRSSGVPDRFSGSKSGTSASLAISGLRSEDEADYYCQSYDNSLSASVFGGGTKLTVLG
notes: also called 497A-M136-021-1-hIgG1Lambda
Turning to B1, the binding result with cynomolgus CCR8 [1] and with human CCR8 [2] was “binds” throughout.

B2: TPP-17579 (antibody, human IgG1, lambda, V domains shown)
VH: EVQLLESGGGLVQPGGSLRLSCAASGFTFVTYWMTWVRQAPGKGLEWVSGVSWNGSRTHYVDSVKRRFTISRDNSKNTLYLQMNSLRAEDTAVYYCARYSGYPDYYGMDVWGQGTLVTVSS
VL: QSVLTQPPSASGTPGQRVTISCSGSWSNIGNDNVYWYQQLPGTAPKLLIYRNNQRPSGVPDRFSGSKSGTSASLAISGLRSEDEADYYCQSYDRSLSGSVFGGGTKLTVLG
notes: also called 497A-M180-K04-1-hIgG1Lambda
For B2, the binding result in the test with cynomolgus CCR8 [1] and in the test with human CCR8 [2] was “binds” each time.

B3: TPP-17580 (antibody, human IgG1, lambda, V domains shown)
VH: EVQLLESGGGLVQPGGSLRLSCAASGFTFSSYGMHWVRQAPGKGLEWVSGVSWNGSRTRYADSVKGRFTISRDNSKNTLYLQMNSLRAEDTAVYYCTRGSYNSGWYAVSWGQGTLVTVSS
VL: QSVLTQPPSASGTPGQRVTISCSGSSSNIGSYPVNWYQQLPGTAPKLLIYRNNQRPSGVPDRFSGSKSGTSASLAISGLRSEDEADYYCSSYSVTDNLIFGGGTKLTVLG
notes: also called 497A-M193-A08-1-hIgG1Lambda
For B3, the binding result in the test with cynomolgus CCR8 [1] and with human CCR8 [2] was “binds” in each case.

B4: TPP-17575 (antibody, human IgG1, lambda, V domains shown)
VH: EVQLLESGGGLVQPGGSLRLSCAASGFTFRSYAMHWVRQAPGKGLEWVSLISWDGGSTYYADSVKGRFTISRDNSKNTLYLQMNSLRAEDTAVYYCARGGIGRRPGLEYWGQGTLVTVSS
VL: QSVLTQPPSASGTPGQRVTISCSGSSSNIGNNYVSWYQQLPGTAPKLLIYGNSNRPSGVPDRFSGSKSGTSASLAISGLRSEDEADYYCQTWGTGIRVFGGGTKLTVLG
notes: also called 497A-M181-C17-1-hIgG1Lambda
B4: the binding result with cynomolgus CCR8 [1] and in the test with human CCR8 [2] was “binds” each time.

B5: TPP-27495 (antibody, human IgG1, lambda)
heavy: EVQLLESGGGLVQPGGSLRLSCAASGFTFSSYGMHWVRQAPGKGLEWVSAINWNGGSTGYADSVKGRFTISRDNSKNTLYLQMNSLRAEDTAVYYCARGHHSGYDGRFFDYWGQGTLVTVSSASTKGPSVFPLAPSSKSTSGGTAALGCLVKDYFPEPVTVSWNSGALTSGVHTFPAVLQSSGLYSLSSVVTVPSSSLGTQTYICNVNHKPSNTKVDKKVEPKSCDKTHTCPPCPAPELLGGPSVFLFPPKPKDTLYITREPEVTCVVVDVSHEDPEVKFNWYVDGVEVHNAKTKPREEQYNSTYRVVSVLTVLHQDWLNGKEYKCKVSNKALPAPIEKTISKAKGQPREPQVYTLPPSRDELTKNQVSLTCLVKGFYPSDIAVEWESNGQPENNYKTTPPVLDSDGSFFLYSKLTVDKSRWQQGNVFSCSVMHEALHNHYTQKSLSLSPGK
light: not shown
modifications: 70% afucosylated
notes: also called TPP-27495 (YTE); copies: 2 + 2
In the case of B5, the Kd came to 29 nM with human FcRn, 33 nM with mouse FcRn and 30 nM with cynomolgus FcRn. For the same molecule, the EC50 with human CCR8 [3] stood at 3.25 nM; in the test with cynomolgus CCR8 [5], 0.535 nM; with human CCR8 [6], 1.32 nM. Also, the “pH at Elution” value in [4] came to 7.88 pH.

B6: TPP-21181 (antibody, human IgG1, lambda, V domains shown)
VH: EVQLLESGGGLVQPGGSLRLSCAASGFTFSSYAMSWVRQAPGKGLEWVSGIRWNNGSKGYAGSVKGRFTISRDNSKNTLYLQMNSLRAEDTAVYYCARSGNYYYGYHGMDVWGQGTLVTVSS
VL: QSVLTQPPSASGTPGQRVTISCSGGNSNIGTYFVSWYQQLPGTAPKLLIYTNNQRPSGVPDRFSGSKSGTSASLAISGLRSEDEADYYCETWDSNTRVFGGGTKLTVLG
notes: also called 18205-gl46-hIgG1-wt-Lambda
Take B6: the figures for the concentration giving a half-maximal response (EC50) with cynomolgus CCR8 [7] and with human CCR8 [12] were 1.8 nM and 4.8 nM, respectively. Further, the Activity in % in test [8] was 23.8%; in test [9] it was 78.5%; in [10], 17%; in test [11], 52.9%. Also, the equilibrium dissociation constant (Kd) in [8] is around 2.87 nM; in test [9] it was around 0.868 nM; in test [10], around 2.88 nM; in test [11], around 1.39 nM. The koff in [8] is around 16 s⁻¹; in [9], around 10.7 s⁻¹; in [10] it was around 0.0222 s⁻¹; in test [11] it was around 5.87 s⁻¹. The kon is around 5.56e+09 M⁻¹ s⁻¹ in test [8], around 7.69e+06 M⁻¹ s⁻¹ in test [10] and around 4.23e+09 M⁻¹ s⁻¹ in test [11].

B7: TPP-17581 (antibody, human IgG1, lambda, V domains shown)
VH: EVQLLESGGGLVQPGGSLRLSCAASGFTFSNYRMTWVRQAPGKGLEWVSGINWNGGSTGYADSVKGRFTISRDNSKNTLYLQMNSLRAEDTAVYYCARGRFDTRGFYGFDYWGQGTLVTVSS
VL: QSVLTQPPSASGTPGQRVTISCTGSSSNIGAGYDVHWYQQLPGTAPKLLIYSHNQRPSGVPDRFSGSKSGTSASLAISGLRSEDEADYYCSAWDSSLSAWVFGGGTKLTVLG
notes: also called 497A-M177-L03-1-hIgG1Lambda
Consider B7, for which the binding result in the test with cynomolgus CCR8 [1] and with human CCR8 [2] was “binds” in each case.

B8: TPP-18207 (antibody, human IgG1, lambda, V domains shown)
VH: EVQLLESGGGLVQPGGSLRLSCAASGFTFSNAWMSWVRQAPGKGLEWVSGINWNGGSTGYADSVKGRFTISRDNSKNTLYLQMNSLRAEDTAVYYCARTYTGNYGPYFDYWGQGTLVTVSS
VL: QSVLTQPPSASGTPGQRVTISCTGSSSNIGAGYDVHWYQQLPGTAPKLLIYKNNQRPSGVPDRFSGSKSGTSASLAISGLRSEDEADYYCAAWDDSLRGWVFGGGTKLTVLG
notes: also called 001-B08_497A-M301-B18 + 497A-M316-D16-hIgG1Lambda
Regarding B8, the binding result with cynomolgus CCR8 [1] and with human CCR8 [2] was “binds” throughout.

B9: TPP-14095 (antibody, human IgG1, lambda, V domains shown)
VH: EVQLLESGGGLVQPGGSLRLSCAASGFTFSSYGMHWVRQAPGKGLEWVSAISGSGGSTYYADSVKGRFTISRDNSKNTLYLQMNSLRAEDTAVYYCARGRQLGSWGQGTLVTVSS
VL: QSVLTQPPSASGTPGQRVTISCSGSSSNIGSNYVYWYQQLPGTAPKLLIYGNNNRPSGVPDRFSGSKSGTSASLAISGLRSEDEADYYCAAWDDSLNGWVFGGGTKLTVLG
notes: anti-murine CCR8, human IgG1 lambda; also called 497A-M005-E07-hIgG1Lambda
B9 returned an EC50 with murine CCR8 [13] of 0.7 nM. Moreover, the “IC50, Ca flux assay” value with murine CCR8 [14] came out at 1.65 nM. In addition, the binding result in the test with cynomolgus CCR8 [15] and with human CCR8 [16] was “no binding” each time.
